Laboratory results reported in the supplement of paper PMC11246515.
± gives the standard deviation of the averaged measurements.

Experiment: total protein half-life in vivo (active degradation + dilution); higher = more stable protein
[1] = E. coli NCM3722 delta-clpP delta-lon delta-hslV, growth: N-lim chemostat, doubling time 6 h
[2] = E. coli NCM3722 delta-clpP, growth: N-lim chemostat, doubling time 6 h
[3] = wild type E. coli NCM3722, growth: C-lim chemostat, doubling time 3 h
[4] = wild type E. coli NCM3722, growth: C-lim chemostat, doubling time 6 h
[5] = wild type E. coli NCM3722, growth: C-lim chemostat, doubling time 12 h
[6] = wild type E. coli NCM3722, growth: N-lim chemostat, doubling time 6 h
[7] = wild type E. coli NCM3722, growth: N-lim chemostat, doubling time 12 h
[8] = wild type E. coli NCM3722, growth: P-lim chemostat, doubling time 6 h
[9] = wild type E. coli NCM3722, growth: P-lim chemostat, doubling time 12 h
[10] = E. coli NCM3722 delta-hslV, growth: N-lim chemostat, doubling time 6 h
[11] = E. coli NCM3722 delta-lon, growth: N-lim chemostat, doubling time 6 h
[12] = E. coli NCM3722 delta-smpB, growth: N-lim chemostat, doubling time 6 h

Sequence	total protein half-life in vivo [1]	total protein half-life in vivo [2]	total protein half-life in vivo [3]	total protein half-life in vivo [4]	total protein half-life in vivo [5]	total protein half-life in vivo [6]	total protein half-life in vivo [7]	total protein half-life in vivo [8]	total protein half-life in vivo [9]	total protein half-life in vivo [10]	total protein half-life in vivo [11]	total protein half-life in vivo [12]
MSTPSARTGGSLDAWFKISQRGSTVRQEVVAGLTTFLAMVYSVIVVPGMLGKAGFPPAAVFVATCLVAGLGSIVMGLWANLPLAIGCAISLTAFTAFSLVLGQHISVPVALGAVFLMGVLFTVISATGIRSWILRNLPHGVAHGTGIGIGLFLLLIAANGVGLVIKNPLDGLPVALGDFATFPVIMSLVGLAVIIGLEKLKVPGGILLTIIGISIVGLIFDPNVHFSGVFAMPSLSDENGNSLIGSLDIMGALNPVVLPSVLALVMTAVFDATGTIRAVAGQANLLDKDGQIIDGGKALTTDSMSSVFSGLVGAAPAAVYIESAAGTAAGGKTGLTAITVGVLFLLILFLSPLSYLVPGYATAPALMYVGLLMLSNVAKIDFADFVDAMAGLVTAVFIVLTCNIVTGIMIGFATLVIGRLVSGEWRKLNIGTVVIAVALVTFYAGGWAI [P0AF52]	6.73 ± 0.3 h	6.71 ± 0.4 h	3.4 ± 0.27 h	6.122 ± 0.032 h	13.3 ± 3.4 h	6.45 ± 0.33 h	12.2 ± 0.93 h	6.39 ± 0.3 h	14.2 ± 1.6 h	–	–	–
MDKFDANRRKLLALGGVALGAAILPTPAFATLSTPRPRILTLNNLHTGESIKAEFFDGRGYIQEELAKLNHFFRDYRANKIKSIDPGLFDQLYRLQGLLGTRKPVQLISGYRSIDTNNELRARSRGVAKKSYHTKGQAMDFHIEGIALSNIRKAALSMRAGGVGYYPRSNFVHIDTGPARHW [P0AB06]	3.83 ± 1.1 h	–	0.68 ± 0.53 h	2.67 ± 0.29 h	6.36 ± 2 h	1.97 ± 0.11 h	1.81 ± 1.2 h	1.82 ± 0.81 h	2.46 ± 0.46 h	2.76 ± 2.8 h	1 ± 0.91 h	1.8 ± 0.088 h
MNDRDFMRYSRQILLDDIALDGQQKLLDSQVLIIGLGGLGTPAALYLAGAGVGTLVLADDDDVHLSNLQRQILFTTEDIDRPKSQVSQQRLTQLNPDIQLTALQQRLTGEALKDAVARADVVLDCTDNMATRQEINAACVALNTPLITASAVGFGGQLMVLTPPWEQGCYRCLWPDNQEPERNCRTAGVVGPVVGVMGTLQALEAIKLLSGIETPAGELRLFDGKSSQWRSLALRRASGCPVCGGSNADPV	4.92 ± 0.58 h	3.65 ± 0.013 h	2.37 ± 0.41 h	4.03 ± 0.18 h	8.83 ± 2.4 h	3.24 ± 0.079 h	8.28 ± 6.9 h	4.26 ± 0.46 h	7.08 ± 0.84 h	3.8 ± 0.15 h	5.12 ± 0.89 h	2.97 ± 0.83 h
MEKDYLRISSTVLVSLLFGLALVLVNSWFNQPGVEEVVPRSTYLMVMIALFFIDTVAFIFMQLYFIYDRRQFSNCVLSLAFLSCLIYFVITVIIIQQIIEERLTSSVVQNDIAIYYLFRQMSLCILIFLALVNKVSENTKQRNLFSKKMTLCISLFFVFGGPIVAHILSSHYESYNLHIAELTNENGQVVWKASYVTIMIFMWLTLLSVNLYFNGLRYDIWNGVTVIAFCAVLYNISLLFMSRYSVSTWYISRTIEVVSKLTVMVIFMCHIFSALRVTKNIAHRDPLTNIFNRNYFFNELTVQSASAQKTPYCVMIMDIDHFKKVNDTWGHPVGDQVIKTVVNIIGKSIRPDDLLARVGGEEFGVLLTDIDTERAKALAERIRENVERLTGDNPEYAIPQKVTISIGAVVTQENALNPNEIYRLADNALYEAKETGRNKVVVRDVVNFCESP	–	–	2.9 h	–	–	–	–	–	–	–	–	–
MAKNIQAIRGMNDYLPGETAIWQRIEGTLKNVLGSYGYSEIRLPIVEQTPLFKRAIGEVTDVVEKEMYTFEDRNGDSLTLRPEGTAGCVRAGIEHGLLYNQEQRLWYIGPMFRHERPQKGRYRQFHQLGCEVFGLQGPDIDAELIMLTARWWRALGISEHVTLELNSIGSLEARANYRDALVAFLEQHKEKLDEDCKRRMYTNPLRVLDSKNPEVQALLNDAPALGDYLDEESREHFAGLCKLLESAGIAYTVNQRLVRGLDYYNRTVFEWVTNSLGSQGTVCAGGRYDGLVEQLGGRATPAVGFAMGLERLVLLVQAVNPEFKADPVVDIYLVASGADTQSAAMALAERLRDELPGVKLMTNHGGGNFKKQFARADKWGARVAVVLGESEVANGTAVVKDLRSGEQTAVAQDSVAAHLRTLLG	5.71 ± 1.3 h	5.11 ± 0.23 h	3.17 ± 0.23 h	6.14 ± 0.2 h	10.5 ± 0.68 h	4.8 ± 0.22 h	9.1857 ± 0.0011 h	5.98 ± 0.1 h	13.7 ± 0.34 h	5.44 ± 0.23 h	5.45 ± 0.52 h	4.85 ± 0.12 h
MPACELRPATQYDTDAVYALICELKQAEFDHHAFRVGFNANLRDPNMRYHLALLDGEVVGMIGLHLQFHLHHVNWIGEIQELVVMPQARGLNVGSKLLAWAEEEARQAGAEMTELSTNVKRHDAHRFYLREGYEQSHFRFTKAL	4.67 ± 0.61 h	2.53 ± 0.34 h	1.61 ± 0.22 h	2.49 ± 0.34 h	2.45 h	1.93 ± 0.3 h	2.54 ± 0.055 h	3.65 ± 0.24 h	6.57 ± 0.13 h	1.8 ± 0.17 h	2.76 ± 0.12 h	1.58 ± 0.037 h
MTLPKIKQVRAWFTGGATAEKGAGGGDYHDQGANHWIDDHIATPMSKYRDYEQSRQSFGINVLGTLVVEVEAENGQTGFAVSTAGEMGCFIVEKHLNRFIEGKCVSDIKLIHDQMLSATLYYSGSGGLVMNTISCVDLALWDLFGKVVGLPVYKLLGGAVRDEIQFYATGARPDLAKEMGFIGGKMPTHWGPHDGDAGIRKDAAMVADMREKCGEDFWLMLDCWMSQDVNYATKLAHACAPYNLKWIEECLPPQQYESYRELKRNAPVGMMVTSGEHHGTLQSFRTLSETGIDIMQPDVGWCGGLTTLVEIAAIAKSRGQLVVPHGSSVYSHHAVITFTNTPFSEFLMTSPDCSTMRPQFDPILLNEPVPVNGRIHKSVLDKPGFGVELNRDCNLKRPYSH	–	–	2.53 ± 0.29 h	3.97 ± 0.25 h	7.51 ± 1.1 h	> 8 h	–	–	9.69 h	–	–	–
